The results in this text go back to paper PMC11057775, “Structural characterization of two nanobodies targeting the ligand-binding pocket of human Arc” (PLOS ONE, 2024).

Data set [1] concerns the molecule itself. Put plainly: SEC-MALS + other: SEC-SAXS; rArcFL-7A alone and with E5, C11 or both; 20 mM Tris pH 7.5, 150 mM NaCl, 0.5 mM TCEP; 1:1.3 protein-to-nanobody ratio for SAXS.
The target in data set [2] is T1, Arc N-lobe (Arc-NL, Arc 207-277) (human, UniProt Q7LC44 207-277).
T1 construct: Activity-regulated cytoskeleton-associated protein (Arc), N-lobe, residues 207-277; identical for human, rat and mouse Arc-NL; construct His6-MBP-TEV-NL in pETMBP_1a; 8.9 kDa as printed; also called human Arc N-lobe; source: E. coli BL21(DE3), purified (Ni-NTA, tag cleavage, reverse Ni-NTA, SEC); not shown: His6, N-terminal, cleaved; MBP, N-terminal, cleaved
T1 sequence (looked up): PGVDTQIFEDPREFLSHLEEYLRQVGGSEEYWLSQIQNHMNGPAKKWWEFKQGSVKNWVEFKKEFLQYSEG
Description: ITC; 2 mM P1 (titrant) into 200 μM Arc-NL (titrate), TBS, 20 °C, three sequential titrations concatenated, 1:1 binding model, one replicate. The following applies: both partners purified.

The target of data set [3] is T2, Arc N-lobe (Arc-NL, Arc 207-277) (human, UniProt Q7LC44).
T2 construct: Activity-regulated cytoskeleton-associated protein (Arc), N-lobe, residues 207-277; identical for human, rat and mouse Arc-NL; construct His6-MBP-TEV-NL in pETMBP_1a; 8.9 kDa as printed; also called human Arc N-lobe; source: E. coli BL21(DE3), purified (Ni-NTA, tag cleavage, reverse Ni-NTA, SEC); not shown: His6, N-terminal, cleaved; MBP, N-terminal, cleaved
Put plainly: ITC; 15 μM E5/H11 (titrant) into 1.5 μM Arc-NL (titrate), TBS (20 mM Tris-HCl pH 7.5, 150 mM NaCl), 20 °C, 1:1 binding model, four replicates. The following applies: both partners purified. A general note: ITC needs no label: the signal is the heat of the interaction.

The target in data set [4] is T2, Arc N-lobe (Arc-NL, Arc 207-277). Description: ITC; displacement assay: 100 μM E5/H11 (titrant) into 10 μM Arc-NL saturated with 100 μM P1, TBS, 20 °C; apparent constants, one replicate. The following applies: both partners purified.
Data set [5] has as its target T3, full-length rat Arc with a poly-Ala mutation in residues 113-119 (rArcFL-7A) (rat, UniProt Q63053, poly-Ala mutation in residues 113-119).
T3 construct: Activity-regulated cytoskeleton-associated protein (Arc), rat, full length, residues 113-119 replaced by alanines; expressed with an N-terminal His6-MBP fusion in pHMGWA; also called flArc dimeric mutant; dimeric full-length Arc; not shown: His6, N-terminal, cleaved; MBP, N-terminal, cleaved
Description: SEC-MALS + other: SEC-SAXS; rArcFL-7A alone and with E5, C11 or both; 20 mM Tris pH 7.5, 150 mM NaCl, 0.5 mM TCEP; 1:1.3 protein-to-nanobody ratio for SAXS. Conditions: both partners purified. In general terms: Size exclusion chromatography separates by hydrodynamic size, large species first.

Where no end group is shown, it is not given here.

B1: full-length rat Arc with a poly-Ala mutation in residues 113-119 (rArcFL-7A) (natural protein, UniProt Q63053 1-396, looked up)
chain: MELDHMTTGGLHAYPAPRGGPAAKPNVILQIGKCRAEMLEHVRRTHRHLLTEVSKQVERELKGLHRSVGKLENNLDGYVPTGDSQRWKKSIKACLCRCQETIANLERWVKREAAAAAAAFYRLERWADRLESMGGKYPVGSEPARHTVSVGVGGPEPYCQEADGYDYTVSPYAITPPPAAGELPEQESVGAQQYQSWVPGEDGQPSPGVDTQIFEDPREFLSHLEEYLRQVGGSEEYWLSQIQNHMNGPAKKWWEFKQGSVKNWVEFKKEFLQYSEGTLSREAIQRELDLPQKQGEPLDQFLWRKRDLYQTLYVDAEEEEIIQYVVGTLQPKFKRFLRHPLPKTLEQLIQRGMEVQDGLEQAAEPSVTPLPTEDETEALTPALTSESVASDRTQPE
notes: Activity-regulated cytoskeleton-associated protein (Arc), rat, full length, residues 113-119 replaced by alanines; expressed with an N-terminal His6-MBP fusion in pHMGWA; also called flArc dimeric mutant; dimeric full-length Arc; not shown: His6, N-terminal, cleaved; MBP, N-terminal, cleaved
Consider B1, for which the stoichiometry N – broadly, the number of molecules, sites or subunits per partner or assembly – in data set [1] came to 2.

B2: FITC-labelled, TAT-tagged TARPγ2 peptide (forward peptide P1) (peptide)
peptide: YGRKKRRQRRRGGRIPSYRYR
modifications: also: FITC label, position not given here
notes: stretch of the transmembrane AMPAR regulatory protein γ2 (TARPγ2, stargazin); the split into TAT, linker and TARPγ2 stretch is mine; also called TARPγ2-derived peptide; source: synthetic peptide, bought: GenScript Biotech
Regarding B2, in data set [2], the Kd (as a rule, the equilibrium constant for the complex coming apart) stood at 5310 nM and the dH is -14.9 kcal/mol.

B3: anti-Arc nanobody H11 (VHH)
VHH: EVQLLESGGGLVQAGDSLRLSCAASGRTFSAYAMGWFRQAPGKEREFVAAISWSGNSTYYADSVKGRFTISRDNAKNTVYLQMNSLKPEDTAIYYCAARKPMYRVDISKGQNYDYWGQGTQVTVSS
notes: alpaca nanobody; 14.1 kDa as printed; provided by Nanotag Biotechnologies in the vector pNT1433 (His6-TEV-H11); CDR3 holds a PxY motif; source: E. coli BL21(DE3), purified (Ni-NTA, tag cleavage, reverse Ni-NTA, SEC); not shown: His6, N-terminal, cleaved
In data set [3], B3 came in with a Kd of 1.14 nM and a dH of -23.5 kcal/mol. Moreover, the “dH-App (Arc-NL saturated with P1)” value in data set [4] was -10.3 kcal/mol.

B4: anti-Arc nanobody E5 (VHH)
VHH: EVQLQESGGGLVQAGGSLRLSCAASGSIFSGNAMGWYRQAPGKQREVVAVISAGNSSNYVDSVKGRFTISRDNAKNTVYLQMNSLKPEDTAVYYCNVVKRGPQWGMEWGKGTLVTVSS
notes: alpaca nanobody; 12.8 kDa as printed; provided by Nanotag Biotechnologies in the vector pNT1433 (His6-TEV-E5); CDR3 holds a PxW motif; source: E. coli BL21(DE3), purified (Ni-NTA, tag cleavage, reverse Ni-NTA, SEC); not shown: His6, N-terminal, cleaved
In data set [3], B4 returned a Kd of 0.99 nM and a dH of -23.2 kcal/mol. For the same molecule, in data set [5], the “stoichiometry Arc:E5:C11 of the ternary complex” value was 1 E5 per Arc chain (2 Arc : 2 E5 : 2 C11) and the “stoichiometry N” value is 1 E5 per Arc chain (2 E5 : 2 Arc). Besides, the “dH-App (Arc-NL saturated with P1)” value in data set [4] is -12 kcal/mol.
